According to patent publication US7132258:

Molecular target: Gal4 DBD fusion of the LBD of hRARα (human)
Assay: cell-based or functional assay

- ligand-dependent transcriptional activation by Gal4 DBD fusion of RAR on a Gal4-dependent luciferase reporter, A549 cells, 100 nM atRA: 2 fold
Substance: full-length RAC3 expressed from pCMX.F.RAC3 (FLAG and HA epitope at the N-terminus) (from UniProt Q9Y6Q9 2-1424)
